Test results from patent US20240025965A1 (UNIVERSITEIT TWENTE, published 2024).
Where no end group is shown, it is not given here.

T1: ITGA11 on human stellate cells (LX2 hepatic stellate cells; primary pancreatic stellate cells) (human, UniProt Q9UKX5 23-1188)
T1 construct: whole, on cells; For the pancreatic stellate cells the target is only implied; also called ITGA11-expressing hepatic stellate cells; ITGA11 expressing LX2 cells
T1 sequence (looked up): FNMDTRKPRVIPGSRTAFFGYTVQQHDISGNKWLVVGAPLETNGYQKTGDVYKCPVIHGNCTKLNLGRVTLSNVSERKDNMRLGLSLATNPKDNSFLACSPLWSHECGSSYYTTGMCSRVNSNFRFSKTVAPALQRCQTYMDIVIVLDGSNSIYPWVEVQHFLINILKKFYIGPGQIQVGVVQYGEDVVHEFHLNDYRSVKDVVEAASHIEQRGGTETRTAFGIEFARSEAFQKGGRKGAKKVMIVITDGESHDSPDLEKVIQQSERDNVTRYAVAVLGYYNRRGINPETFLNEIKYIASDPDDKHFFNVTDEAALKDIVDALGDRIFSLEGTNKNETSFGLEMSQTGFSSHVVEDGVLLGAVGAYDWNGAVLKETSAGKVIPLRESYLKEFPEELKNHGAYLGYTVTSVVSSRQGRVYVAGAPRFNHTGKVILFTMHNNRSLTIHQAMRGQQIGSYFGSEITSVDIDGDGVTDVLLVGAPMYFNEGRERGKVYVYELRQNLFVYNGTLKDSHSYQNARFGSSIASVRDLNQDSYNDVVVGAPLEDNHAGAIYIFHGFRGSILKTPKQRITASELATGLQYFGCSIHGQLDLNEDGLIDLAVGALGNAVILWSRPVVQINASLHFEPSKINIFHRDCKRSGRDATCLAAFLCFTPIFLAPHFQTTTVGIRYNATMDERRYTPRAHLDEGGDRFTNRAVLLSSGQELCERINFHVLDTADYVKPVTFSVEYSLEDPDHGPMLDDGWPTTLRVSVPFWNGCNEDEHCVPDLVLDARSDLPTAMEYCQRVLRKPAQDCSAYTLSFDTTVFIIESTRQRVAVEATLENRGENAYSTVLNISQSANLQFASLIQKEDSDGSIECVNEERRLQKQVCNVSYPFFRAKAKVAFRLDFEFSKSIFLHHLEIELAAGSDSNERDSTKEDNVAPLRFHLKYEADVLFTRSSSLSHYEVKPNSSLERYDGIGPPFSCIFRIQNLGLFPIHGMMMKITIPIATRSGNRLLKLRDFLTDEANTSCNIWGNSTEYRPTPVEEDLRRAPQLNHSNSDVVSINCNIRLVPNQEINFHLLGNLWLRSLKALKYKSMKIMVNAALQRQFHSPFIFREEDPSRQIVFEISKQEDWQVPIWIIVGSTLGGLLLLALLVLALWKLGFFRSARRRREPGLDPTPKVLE

B1: AV3-PEG(6)-5FAM (peptide)
peptide: RYYRITY
modifications: also: PEG(6)-5FAM conjugated, site not given here
notes: also called AV3 peptide (fluorescent labeled)

Experiments:
[1] = molecular target: T2, α5β1 human recombinant protein (human, UniProt P08648 42-995; P05556 21-728); test: FITC-labelled peptide on coated α5β1 receptor in a 96-well plate, fluorescence intensity
T2 construct: Bought from R&D Systems; also called α5β1 receptor; integrin α5β1
Protocol: Purified ITGA11 receptor (α11β1; 100 μg/ml—stock; R&D systems) was diluted to 5 μg/ml with 1×PBS. 96-well ELISA White Maxisorb plate (Nunc) was coated with 50 μl of 5 μg/ml ITGA11 (or as control α5β1) receptor for overnight at 4° C. Then, wells were blocked for 3-4 hours with 200 μl of blocking buffer (1×PBS containing 5% BSA). Wells were washed three times with 200 μl of washing buffer (1×PBS containing 0.5% BSA and 0.05% TWEEN®-20). Peptides conjugated with FITC were diluted to different concentrations in washing buffer and then added to the plate and incubated at 37° C. for 1 hour. In addition, the binding of the peptide was blocked by co-incubation with 10× higher amount of unlabeled peptide. Subsequently, wells were washed three times with washing buffer. Then, 100 μl of 1×PBS was added and plates were read at 485 nm/520 nm with a fluorescence plate reader.

[2] = molecular target: T3, human recombinant receptor αvβ3 (human, UniProt P06756 31-992; P05106 27-718, limits assumed); test: microscale thermophoresis, 1 µM labelled peptide
T3 construct: also called irrelevant receptor of the integrin family
Protocol: (§1) Fluorescent labeled peptide (AV3-PEG(6)-5FAM or AXI-I-PEG(6)-FITC) (1 μM) was incubated with different concentrations of a human recombinant receptor (i.e., α5β1, α11β1 or αvβ3) for 10 minutes in Eppendorf tubes. The mixture of peptide and receptor was loaded in to NT.115™ hydrophilic glass capillaries. In order to find the best thermophoretic setting, the binding of peptide to the target receptor was examined at low (20%), middle (40%), and high (80%) MST power and all other binding experiments were performed using the same MST-settings. Finally, the dissociation constant (Kd) value was calculated from an average of three experiments.
(§2) Fluorescent labeled peptides (AV3-PEG(6)-5FAM and AXI-I-PEG(6)-FITC) were examined for their binding affinities against α5β1 and α11β1 receptors, respectively using microscale thermophoresis (MST). MST allows peptides to interact with the receptors in solution phase. These peptides were also exposed to an irrelevant receptor of the integrin family αvβ3 and MST analyses were performed.

[3] = molecular target: T1, ITGA11 on human stellate cells (LX2 …); test: flow cytometry on suspended primary human pancreatic stellate cells, 1 hour at 4° C.; whole-cell binding on suspended primary human pancreatic stellate cells, 1 hour at 4° C., flow cytometry; PEG- and FITC-modified peptide
Protocol: (§3) PSCs were trypsinized using trypsin-EDTA solution and cell numbers were diluted to 4×10⁴ cells/ml. Cells were incubated at 37° C. for 30 minutes to allow receptor recovery. Then different concentrations of AXI-I-FITC was added to the cells containing 2% FBS and incubated at 4° C. for 60 minutes. Thereafter, cells were centrifuged at 1500 rpm at 4° C. for 10 minutes. Supernatant was removed and cells were washed 3 times with PBS and then were fixed with 0.5% formaldehyde for 1 hour at 4° C. and measured with flow cytometry for fluorescence.
(§4) Different concentrations of AXI-I-PEG-FITC was incubated with suspended PSCs for 1 hour at 4° C., washed and fixed with 0.5% formaldehyde and measured with flow cytometry. […] The 50% of the total binding, i.e., dissociation constant (kd) value was approximately 1 uM. Since the peptide has been modified with PEG chain and a fluorophore, the binding affinity of the peptide may be reduced due to steric hindrance.

[4] = molecular target: T1, ITGA11 on human stellate cells (LX2 …); test: flow cytometry of AXI-I-PEG-FITC on suspended primary human pancreatic stellate cells, 1 hour at 4 °C
Protocol: as §3, §4

rhIntegrin α11β1 = molecular target: T4, rhIntegrin α11β1 (human, UniProt Q9UKX5 23-1141; P05556 21-728, limits assumed); test: microscale thermophoresis, 1 µM labelled peptide, receptor titrated, in solution
T4 construct: Bought from R&D Systems; also called α11β1 receptor; ITGA11 receptor
Protocol: as §1, §2

[5] = molecular target: T2, α5β1 human recombinant protein; test: as above
Protocol: as §1, §2

[6] = molecular target: T3, human recombinant receptor αvβ3; test: as above
Protocol: as §1, §2

[7] = molecular target: T2, α5β1 human recombinant protein; test: microscale thermophoresis, 1 µM labelled peptide with rising concentrations of the receptor in solution
Protocol: as §1, §2

T2 sequence (P08648 42-995 limits assumed, chain 1 of 2): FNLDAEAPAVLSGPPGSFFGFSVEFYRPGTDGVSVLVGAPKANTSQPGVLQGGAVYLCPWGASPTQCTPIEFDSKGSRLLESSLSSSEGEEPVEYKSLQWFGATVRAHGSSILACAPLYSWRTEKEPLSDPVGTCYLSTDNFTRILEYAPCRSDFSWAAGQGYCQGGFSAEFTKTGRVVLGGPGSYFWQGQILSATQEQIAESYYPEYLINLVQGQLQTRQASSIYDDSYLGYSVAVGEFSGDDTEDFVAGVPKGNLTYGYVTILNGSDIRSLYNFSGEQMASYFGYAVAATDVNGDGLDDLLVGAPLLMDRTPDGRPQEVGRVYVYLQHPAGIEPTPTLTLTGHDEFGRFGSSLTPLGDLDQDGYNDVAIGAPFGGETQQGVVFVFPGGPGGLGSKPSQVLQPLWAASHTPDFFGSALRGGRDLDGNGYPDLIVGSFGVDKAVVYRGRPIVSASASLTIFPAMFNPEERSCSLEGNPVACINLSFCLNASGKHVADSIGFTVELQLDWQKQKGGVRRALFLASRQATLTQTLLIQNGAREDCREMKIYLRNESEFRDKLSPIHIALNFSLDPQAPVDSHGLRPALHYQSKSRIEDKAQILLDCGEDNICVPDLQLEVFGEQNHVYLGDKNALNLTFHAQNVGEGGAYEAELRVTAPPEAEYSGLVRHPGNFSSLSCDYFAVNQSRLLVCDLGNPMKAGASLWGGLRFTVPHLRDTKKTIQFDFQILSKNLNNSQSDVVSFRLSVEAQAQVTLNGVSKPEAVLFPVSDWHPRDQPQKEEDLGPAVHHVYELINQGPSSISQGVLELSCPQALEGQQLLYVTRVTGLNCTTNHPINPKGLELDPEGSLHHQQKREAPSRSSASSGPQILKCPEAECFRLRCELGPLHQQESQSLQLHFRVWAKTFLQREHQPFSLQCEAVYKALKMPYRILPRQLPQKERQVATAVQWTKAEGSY
T2 sequence (P05556 21-728 limits assumed, chain 2 of 2): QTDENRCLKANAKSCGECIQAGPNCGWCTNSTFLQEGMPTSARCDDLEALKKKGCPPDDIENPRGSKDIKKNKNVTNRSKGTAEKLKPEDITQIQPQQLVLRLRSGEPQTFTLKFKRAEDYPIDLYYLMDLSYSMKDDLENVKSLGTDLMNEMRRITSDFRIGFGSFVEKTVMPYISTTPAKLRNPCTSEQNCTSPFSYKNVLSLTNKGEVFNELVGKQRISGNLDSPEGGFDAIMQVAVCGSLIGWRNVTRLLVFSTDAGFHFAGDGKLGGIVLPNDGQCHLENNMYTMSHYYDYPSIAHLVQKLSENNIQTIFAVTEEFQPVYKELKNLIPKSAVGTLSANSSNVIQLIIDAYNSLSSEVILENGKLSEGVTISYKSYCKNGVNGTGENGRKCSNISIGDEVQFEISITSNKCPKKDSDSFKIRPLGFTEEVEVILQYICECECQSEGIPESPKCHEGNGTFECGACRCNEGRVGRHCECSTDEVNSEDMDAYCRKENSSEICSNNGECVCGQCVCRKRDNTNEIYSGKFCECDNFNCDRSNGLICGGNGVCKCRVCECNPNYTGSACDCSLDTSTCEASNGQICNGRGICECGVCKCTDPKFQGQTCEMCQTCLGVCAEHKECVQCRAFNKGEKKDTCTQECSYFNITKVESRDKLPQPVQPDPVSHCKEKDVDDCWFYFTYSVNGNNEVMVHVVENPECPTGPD
T3 sequence (P06756 31-992 limits assumed, chain 1 of 2): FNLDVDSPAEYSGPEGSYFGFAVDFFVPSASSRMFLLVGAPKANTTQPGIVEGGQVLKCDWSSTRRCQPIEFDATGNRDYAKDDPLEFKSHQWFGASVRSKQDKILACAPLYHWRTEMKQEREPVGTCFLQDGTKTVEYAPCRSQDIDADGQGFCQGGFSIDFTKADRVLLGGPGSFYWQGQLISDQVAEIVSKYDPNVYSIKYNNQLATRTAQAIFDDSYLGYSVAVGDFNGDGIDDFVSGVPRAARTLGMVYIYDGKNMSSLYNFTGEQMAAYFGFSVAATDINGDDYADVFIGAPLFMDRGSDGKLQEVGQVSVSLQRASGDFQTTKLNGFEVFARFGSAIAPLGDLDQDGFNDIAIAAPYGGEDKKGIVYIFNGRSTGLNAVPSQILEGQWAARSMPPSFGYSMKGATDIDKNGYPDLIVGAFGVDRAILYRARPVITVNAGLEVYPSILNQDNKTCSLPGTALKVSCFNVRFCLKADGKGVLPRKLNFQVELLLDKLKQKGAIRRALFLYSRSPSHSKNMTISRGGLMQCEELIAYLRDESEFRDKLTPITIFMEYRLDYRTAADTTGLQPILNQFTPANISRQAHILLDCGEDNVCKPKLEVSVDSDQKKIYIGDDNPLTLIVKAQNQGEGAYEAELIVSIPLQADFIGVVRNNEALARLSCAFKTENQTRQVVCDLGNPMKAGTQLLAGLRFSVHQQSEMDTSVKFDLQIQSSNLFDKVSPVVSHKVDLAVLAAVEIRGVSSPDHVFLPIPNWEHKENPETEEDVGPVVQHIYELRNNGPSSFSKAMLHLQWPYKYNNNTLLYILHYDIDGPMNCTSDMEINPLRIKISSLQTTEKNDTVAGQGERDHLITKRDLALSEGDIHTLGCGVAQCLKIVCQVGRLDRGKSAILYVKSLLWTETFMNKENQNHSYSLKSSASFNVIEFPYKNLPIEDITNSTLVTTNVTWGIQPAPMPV
T3 sequence (P05106 27-718 limits assumed, chain 2 of 2): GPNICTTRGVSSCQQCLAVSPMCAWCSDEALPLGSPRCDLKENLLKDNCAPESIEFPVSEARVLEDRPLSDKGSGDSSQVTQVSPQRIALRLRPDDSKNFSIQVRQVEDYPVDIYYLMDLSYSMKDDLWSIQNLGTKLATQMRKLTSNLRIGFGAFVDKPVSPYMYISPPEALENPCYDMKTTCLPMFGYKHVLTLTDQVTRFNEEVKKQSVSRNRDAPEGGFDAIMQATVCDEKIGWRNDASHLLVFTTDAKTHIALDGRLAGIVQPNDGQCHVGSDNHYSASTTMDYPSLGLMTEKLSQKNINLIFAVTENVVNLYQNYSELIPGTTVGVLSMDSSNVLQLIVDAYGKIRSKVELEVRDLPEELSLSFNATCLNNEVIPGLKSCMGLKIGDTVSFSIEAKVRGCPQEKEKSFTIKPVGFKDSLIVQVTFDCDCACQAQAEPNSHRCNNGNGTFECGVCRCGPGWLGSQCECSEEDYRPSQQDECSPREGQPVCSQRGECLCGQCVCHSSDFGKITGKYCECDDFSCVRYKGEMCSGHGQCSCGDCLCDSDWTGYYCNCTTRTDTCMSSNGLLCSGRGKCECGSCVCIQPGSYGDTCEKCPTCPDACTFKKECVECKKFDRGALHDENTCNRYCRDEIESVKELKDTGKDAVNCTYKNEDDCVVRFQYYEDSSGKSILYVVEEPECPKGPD
T4 sequence (P05556 21-728 limits assumed, one chain of several): as the sequence (P05556 21-728 limits assumed, chain 2 of 2) above

Binder | binding result [1] | binding result [2] | Kd [3] | EC50 (read off the curve) [4] | Kd (rhIntegrin α11β1) | Kd [5] | Kd [6] | EC50 (read off the curve) [7]
SGLTEWLRWFNS (also: PEG(6)-FITC conjugated, site not given here, also called AXI-I-PEG-FITC; AXI-I-FITC) [AXI-I-PEG(6)-FITC] | no binding (tested: 1.0 µM) | no binding | ~1000 nM | ~1000 nM | 149 nM |  |  | 
B1 |  |  |  |  |  | 97.8 nM | 36.1 µM | ~100 nM
